Where no end group is shown, it is not given here.

SNAP-GLP-1R (pSNAP-GLP-1R) on HEK293-SNAP-GLP-1R cells, sequence (P43220 24-463): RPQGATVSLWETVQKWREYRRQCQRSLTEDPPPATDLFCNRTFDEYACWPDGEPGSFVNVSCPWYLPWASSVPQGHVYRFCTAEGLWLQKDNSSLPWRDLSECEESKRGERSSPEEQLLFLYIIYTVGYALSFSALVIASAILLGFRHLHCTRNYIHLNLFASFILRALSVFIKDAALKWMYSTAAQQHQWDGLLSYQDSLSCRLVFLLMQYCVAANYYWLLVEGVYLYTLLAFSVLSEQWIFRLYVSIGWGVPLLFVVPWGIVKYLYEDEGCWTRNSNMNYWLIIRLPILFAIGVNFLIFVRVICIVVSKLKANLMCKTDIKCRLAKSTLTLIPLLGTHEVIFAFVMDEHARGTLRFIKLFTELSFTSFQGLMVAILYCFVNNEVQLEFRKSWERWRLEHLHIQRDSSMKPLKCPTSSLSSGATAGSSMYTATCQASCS

The first data set deals with ECE-1 (Homo sapiens, UniProt P42892).
ECE-1, sequence (P42892 whole entry, species assumed): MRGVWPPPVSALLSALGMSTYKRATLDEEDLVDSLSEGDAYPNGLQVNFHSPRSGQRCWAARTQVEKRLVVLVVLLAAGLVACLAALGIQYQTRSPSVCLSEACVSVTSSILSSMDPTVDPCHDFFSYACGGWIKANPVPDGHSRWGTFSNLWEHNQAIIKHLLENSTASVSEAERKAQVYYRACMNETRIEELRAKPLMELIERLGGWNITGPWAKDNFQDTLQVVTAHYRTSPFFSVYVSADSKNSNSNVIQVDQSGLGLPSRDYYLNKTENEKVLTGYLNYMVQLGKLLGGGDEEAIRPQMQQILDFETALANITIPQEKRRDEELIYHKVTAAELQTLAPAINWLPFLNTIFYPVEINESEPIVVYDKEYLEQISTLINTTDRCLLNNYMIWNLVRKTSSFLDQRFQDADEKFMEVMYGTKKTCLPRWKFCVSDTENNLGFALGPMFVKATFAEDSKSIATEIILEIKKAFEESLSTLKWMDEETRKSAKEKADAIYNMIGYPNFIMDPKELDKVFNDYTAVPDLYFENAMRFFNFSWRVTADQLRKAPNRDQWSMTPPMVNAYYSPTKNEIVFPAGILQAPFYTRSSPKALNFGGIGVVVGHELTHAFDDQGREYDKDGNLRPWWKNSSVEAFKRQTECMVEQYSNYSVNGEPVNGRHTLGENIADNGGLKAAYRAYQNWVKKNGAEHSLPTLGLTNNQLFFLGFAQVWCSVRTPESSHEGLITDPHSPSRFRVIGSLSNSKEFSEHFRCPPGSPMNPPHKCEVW
Experiment: not given
Particulars: 10 nmol peptide in 750 µl 0.2 M acetate buffer pH 5.5 (GLP-1 also at neutral pH), 0.25 µg recombinant ECE-1, 37 °C, up to 24 h, RP-HPLC C18, UV 214 nm, peak area with versus without enzyme, n = 2-3.
As for `CC[C@H](C)[C@H](NC(=O)[C@H](Cc1ccccc1)NC(=O)[C@H](CC(C)C)NC(=O)[C@H](CCCNC(=N)N)NC(=O)[C@@H](NC(=O)[C@H](C)NC(=O)[C@H](CCC(=O)O)NC(=O)[C@H](CCC(=O)O)NC(=O)[C@H](CCC(=O)O)NC(=O)[C@H](CC(C)C)NC(=O)[C@H](Cc1ccc(O)cc1)NC(=O)[C@H](CO)NC(=O)[C@H](CO)NC(=O)[C@@H](NC(=O)[C@H](CC(=O)O)NC(=O)[C@H](CO)NC(=O)[C@@H](NC(=O)[C@H](Cc1ccccc1)NC(=O)[C@@H](NC(=O)CNC(=O)[C@H](CCC(=O)O)NC(=O)[C@H](C)NC(=O)[C@@H](N)Cc1c[nH]cn1)[C@@H](C)O)[C@@H](C)O)C(C)C)C(C)C)C(=O)N[C@@H](CCC(=O)O)C(=O)N[C@@H](Cc1c[nH]c2ccccc12)C(=O)N[C@@H](CC(C)C)C(=O)N[C@@H](CCCCN)C(=O)N[C@@H](CC(N)=O)C(=O)NCC(=O)NCC(=O)N1CCC[C@H]1C(=O)N[C@@H](CO)C(=O)N[C@@H](CO)C(=O)NCC(=O)N[C@@H](C)C(=O)N1CCC[C@H]1C(=O)N1CCC[C@H]1C(=O)N1CCC[C@H]1C(=O)N[C@@H](CO)C(N)=O` [Chi3], the “In vitro peptide degradation by / resistance to ECE-1 (in words)” value was “most ECE-1-resistant”. Turning to “HAEGTFTSDVSSYLEGQAAKEFIEWLKNGGPSSGAPPPS-NH2 [Chi2]”, the “In vitro peptide degradation by / resistance to ECE-1 (in words)” value is “most ECE-1-resistant”.

The same data set, now with this note: pH 5.5.
For the compound `CC[C@H](C)[C@H](NC(=O)[C@H](Cc1ccccc1)NC(=O)[C@H](CCC(=O)O)NC(=O)[C@H](CCCCN)NC(=O)[C@H](C)NC(=O)[C@H](C)NC(=O)[C@H](CCC(N)=O)NC(=O)CNC(=O)[C@H](CCC(=O)O)NC(=O)[C@H](CC(C)C)NC(=O)[C@H](Cc1ccc(O)cc1)NC(=O)[C@H](CO)NC(=O)[C@H](CO)NC(=O)[C@@H](NC(=O)[C@H](CC(=O)O)NC(=O)[C@H](CO)NC(=O)[C@@H](NC(=O)[C@H](Cc1ccccc1)NC(=O)[C@@H](NC(=O)CNC(=O)[C@H](CCC(=O)O)NC(=O)CNC(=O)[C@@H](N)Cc1cnc[nH]1)[C@@H](C)O)[C@@H](C)O)C(C)C)C(=O)N[C@@H](C)C(=O)N[C@@H](Cc1c[nH]c2ccccc12)C(=O)N[C@@H](CC(C)C)C(=O)N[C@H](C(=O)N[C@@H](CCCCN)C(=O)NCC(=O)N[C@@H](CCCNC(=N)N)C(N)=O)C(C)C` [GLP-1-G2], the “In vitro peptide degradation by / resistance to ECE-1 (in words)” value was “ECE-1-sensitive”.

The next data set addresses SNAP-GLP-1R (pSNAP-GLP-1R) on HEK293-SNAP-GLP-1R cells (UniProt P43220). In words: FRET or BRET.
Conditions: not given
In general terms: In BRET a luciferase serves as donor, and the signal depends on an acceptor being close.
For “Chi1 (GLP-1 with the exendin-4 Trp-cage added to its C-terminus) (peptide)”, the Log Ki is -8.2 Log (M). Same read-out and setting: under “Chi1, N-terminus D3 (asp3 derivative) (peptide)” stands -8.5 Log (M); under “Chi1, N-terminus F1 (phe1 derivative) (peptide)”, -6.4 Log (M). “exendin-4 (from UniProt P26349 48-87) (peptide)”: the Log Ki is -9.5 Log (M). Consider exendin-4(1-30) (peptide), for which the Log Ki was -9 Log (M). “exendin-4(1-30), N-terminus D3 (asp3 derivative) (peptide)”: the Log Ki is -9.2 Log (M). For “exendin-4(1-30), N-terminus F1 (phe1 derivative) (peptide)”, the Log Ki was -7.5 Log (M). In the case of “exendin-4, N-terminus D3 (asp3 derivative) (peptide)”, the Log Ki is -9.2 Log (M). Still for that read-out and setting: under exendin-phe1 (peptide) stands -7.3 Log (M).

The record behind these values is PMC7664906 (International Journal of Molecular Sciences, 2020).
